Reference: patent US8410045B2, “Camptothecin-peptide conjugates and pharmaceutical compositions containing the same” (Drais Pharmaceuticals, Inc., priority 2006, dated 2013)
Like-named read-outs stand apart in the source and are kept apart here. Where a SMILES comes first, the peptide text is derived from it. Where no end group is shown, it is not given here. The star is where a group is joined. X2 = CCc1c2c(nc3ccc(OC(=O)[C@H]4CC[C@H](CNC(=O)CCCCCNC(=O)C5CCC(CN6C(=O)CC(*)C6=O)CC5)CC4)cc13)-c1cc3c(c(=O)n1C2)COC(=O)[C@]3(O)CC; X4 = CC[C@@]1(O)C(=O)OCc2c1cc1n(c2=O)Cc2cc3cc(OC(=O)[C@H]4CC[C@H](CNC(=O)C5CCC(CN6C(=O)CC(*)C6=O)CC5)CC4)ccc3nc2-1; X3 = CCc1c2c(nc3ccc(OC(=O)CCCCCNC(=O)C4CCC(CN5C(=O)CC(*)C5=O)CC4)cc13)-c1cc3c(c(=O)n1C2)COC(=O)[C@]3(O)CC

Assays:
[1] = test system: HT-29 tumors; assay: Combination of DPV1047-BCH-SN38 with 5-FU or bevacizumab in the HT-29 tumor model; conditions: 5-FU 40 mg/kg i.v. or bevacizumab 2 mg/kg i.p.
Procedure: Mice were implanted with HT-29 tumors and treated by intraperitoneal administration (bevacizumab) or bolus intravenous injection (5-FU or DPV1047-BCH-SN38) at 10 μL/g. […] The T/C ratio was calculated following treatment with either bevacizumab, 5-FU or DPV1047-BCH-SN38. These T/C ratios were used to evaluate the expected T/C for combined treatment with bevacizumab and DPV1047-BCH-SN38, or 5-FU and DPV1047-BCH-SN38 (T/C of DPV1047-BCH-SN38×T/C of bevacizumab or 5-FU). […] The combination index of the two molecules was calculated by dividing the expected T/C by the observed T/C.

[2] = Stability of conjugates in citrated plasma at 37° C. (half life time, HPLC fluorescence); format: in vitro ADME, human; conditions: human, plasma
Procedure: (§1) The stability of the conjugates was tested in citrated plasma (10% (v/v) sodium citrate buffer, 0.106M) from different species (see Table 1 below). The conjugates at 2.55 μM were incubated at 37° C. in plasma. Samples were analysed using the HPLC fluorescence method described below (see chromatographic equipment and conditions) following TFA/acetonitrile extraction and the amount of free camptothecin, analogs or derivatives thereof (e.g. SN38) released by the conjugates was measured.
(§2) Chromatographic equipment and conditions: 150 μL of each sample were placed in 1.5 mL micro-centrifuge tubes. 450 μL of 5% (v/v) TFA in H2O was added to each tube and the mixture was vortexed for 5 seconds. Samples were then centrifuged at 16000 g, 3 minutes at +4° C. 100 μL of supernatant were placed in 1.5 mL micro-centrifuge tubes. Methanol (100 μL) was then immediately added and vortexed for 5 seconds. Samples were then centrifuged at 16000 g, 3 minutes at room temperature. 150 μL of supernatant were recovered for HPLC analysis. Conjugates, metabolites and camptothecin derivative (i.e. SN38) were separated by high-performance liquid chromatography (HPLC; Agilent 1100 series equipped with a fluorescence detector) using a 4.6×100 mm ([…] particle size) Luna C18(2) column (Phenomenex ref. 00D-4251-E0, Le Pecq, France). The aqueous component of the mobile phase (A) was 0.1% (v/v) TFA in water. The organic modifier (B) was acetonitrile containing 0.1% (v/v) TFA. For the conjugate and its metabolites an elution gradient increasing linearly the proportion of B from 15 to 37% in 2 min, from 37 to 47% in 6 min, followed by 2 min at 90% was applied with a constant flow rate of 1.2 mL/min. The proportion of B was then returned to the initial condition for 3.0 min.
(§3) The half life time of conjugate corresponds to the time necessary to have 50% by mole of free camptothecin, analogs or derivatives thereof released by the conjugates of the invention. In human plasma, the half life time of conjugate DPV1047-linker #1-SN38 (less than 5 mins) was shorter than that of conjugate DPV1047-linker #2-SN38 (6-7 mins), which, in turn, was shorter than that of conjugate DPV1047-linker #3-SN38 (12 mins).
(§4) As in Example II, the stability of these conjugates was tested in either human or dog plasma. Following incubation at 37° C., samples were analyzed after a TFA acetonitrile extraction by the HPLC fluorescence method described in Example II. The in vitro cytotoxicity (IC50) of these compounds was also evaluated.

[3] = as above; format: in vitro ADME; conditions: DPV1047-linker-SN38, 2.55 μM
Procedure: as §1, §2, §3

[4] = as above; format: in vitro ADME; conditions: dog
Procedure: as §1, §2, §3, §4

[5] = test system: NCI-H460 human epithelial lung carcinoma cells; assay: In vitro cytotoxicity (WST-1 cell viability); format: cell-based
Procedure: (§5) Cytotoxic evaluation was performed by seeded cells for 24 h prior to the addition of the therapeutic compound. Cells were incubated for 48 h (37° C.) with different dilutions of the therapeutic compound. Cell viability was then assessed using the WST-1 assay (Roche). The results are expressed as mean cytotoxic concentrations (IC50 value or molar concentration that inhibits 50% of cell viability) that were estimated from sigmoid regression, using Graph Pad Prism 3.02 software.
NCI-H460 (ATCC#: HTB-177): human epithelial lung carcinoma cells. Cells were cultured in RPMI 1640+glutamax and 10% of fetal bovine serum. Cells were plated at a density of 10,000 cells/well in 96-well plates.

[6] = test system: HCT 116 human epithelial colon carcinoma cells; assay: cells; format: cell-based
Procedure: as §5
HCT 116 (ATCC #: CCL-247): human epithelial colon carcinoma cells. Cells were cultured in Mc Coy's 5a medium+1.5 mM L-glutamine and 10% fetal bovine serum. Cells were plated at a density of 8000 cells/well in 96-well plates.

[7] = line of DPV1047-BCH-SN38 12.5 μmol/kg
[8] = line of DPV1047-BCH-SN38 25 μmol/kg
[9] = DPV1047-linker-SN38, 2.55 μM, citrated plasma, read-out: Half life time, Human plasma
[10] = time to 50% by mole free SN38 released, read-out: Half life time, Mouse plasma
[11] = DPV1047-linker-SN38, 2.55 μM, citrated plasma, read-out: Half life time, Dog plasma

O=c1[nH]cc(F)c(=O)[nH]1 [5-FU, 5-fluorouracil, reference compound]
Single treatment Reference drug T/C % [1, 7]: 90% | Single treatment Reference drug T/C % [1, 8]: 94%

CCc1c2c(nc3ccc(OC(=O)[C@H]4CC[C@H](CNC(=O)CCCCCNC(=O)C5CCC(CN6C(=O)CC(SC[C@H](N)C(=O)N[C@H](C(=O)N[C@@H](CCCCN)C(=O)N[C@@H](CCCNC(=N)N)C(=O)NCC(=O)N[C@@H](CC(C)C)C(=O)N[C@@H](CCCCN)C(=O)N[C@@H](CC(C)C)C(=O)N[C@@H](CCCNC(=N)N)C(=O)N[C@@H](Cc7c[nH]cn7)C(=O)N[C@H](C(=O)N[C@@H](CCCNC(=N)N)C(=O)N7CCC[C@H]7C(=O)N[C@@H](CCCNC(=N)N)C(=O)N[C@H](C(=O)N[C@H](C(=O)N[C@@H](CCCNC(=N)N)C(=O)N[C@@H](CCSC)C(=O)N[C@@H](CC(=O)O)C(=O)N[C@H](C(=O)O)C(C)C)[C@@H](C)O)C(C)C)C(C)C)C(C)C)C6=O)CC5)CC4)cc13)-c1cc3c(c(=O)n1C2)COC(=O)[C@]3(O)CC (some centres unmarked) [DPV1047-linker #7-SN38] (H-C(X2)VKRGLKLRHVRPRVTRMDV-OH; N-terminus and C-terminus assumed)
half-life [2, 9]: 2.5 h | half-life [3, 10]: < 0.05 h | half-life ([3]; monkey): 1.5 h | half-life ([3]; rat): 0.15 h | half-life [4, 11]: 2.75 h

CCc1c2c(nc3ccc(OC(=O)[C@H]4CC[C@H](CNC(=O)C5CCC(CN6C(=O)CC(SC[C@H](N)C(=O)N[C@@H](CCCNC(=N)N)C(=O)N[C@@H](CCC(N)=O)C(=O)N[C@H](C(=O)N[C@@H](CCCCN)C(=O)N[C@H](C(=O)N[C@@H](Cc7c[nH]c8ccccc78)C(=O)N[C@@H](Cc7ccccc7)C(=O)N[C@@H](CCC(N)=O)C(=O)N[C@@H](CC(N)=O)C(=O)N[C@@H](CCCNC(=N)N)C(=O)N[C@@H](CCCNC(=N)N)C(=O)N[C@@H](CCSC)C(=O)N[C@@H](CCCCN)C(=O)N[C@@H](Cc7c[nH]c8ccccc78)C(=O)N[C@@H](CCCCN)C(=O)N[C@@H](CCCCN)C(=O)O)[C@@H](C)CC)[C@@H](C)CC)C6=O)CC5)CC4)cc13)-c1cc3c(c(=O)n1C2)COC(=O)[C@]3(O)CC (some centres unmarked) [Penetratin-linker #5-SN38]
half-life ([2]; Table 10, SN38 conjugates, read-out: Human Plasma Half life time): 1 h | IC50 ([5]; 24 h): 53 nM | half-life ([4]; Table 10, SN38 conjugates, read-out: Dog Plasma Half life time): 2.5 h | IC50 ([6]; 24 h): 57 nM

CCc1c2c(nc3ccc(OC(=O)CCCCCNC(=O)C4CCC(CN5C(=O)CC(SC[C@H](N)C(=O)N[C@H](C(=O)N[C@@H](CCCCN)C(=O)N[C@@H](CCCNC(=N)N)C(=O)NCC(=O)N[C@@H](CC(C)C)C(=O)N[C@@H](CCCCN)C(=O)N[C@@H](CC(C)C)C(=O)N[C@@H](CCCNC(=N)N)C(=O)N[C@@H](Cc6c[nH]cn6)C(=O)N[C@H](C(=O)N[C@@H](CCCNC(=N)N)C(=O)N6CCC[C@H]6C(=O)N[C@@H](CCCNC(=N)N)C(=O)N[C@H](C(=O)N[C@H](C(=O)N[C@@H](CCCNC(=N)N)C(=O)N[C@@H](CCSC)C(=O)N[C@@H](CC(=O)O)C(=O)N[C@H](C(=O)O)C(C)C)[C@@H](C)O)C(C)C)C(C)C)C(C)C)C5=O)CC4)cc13)-c1cc3c(c(=O)n1C2)COC(=O)[C@]3(O)CC (some centres unmarked) [DPV1047-linker #4-SN38] (H-C(X3)VKRGLKLRHVRPRVTRMDV-OH)
half-life [2, 9]: 0.667 h | half-life [3, 10]: < 0.05 h | half-life ([3]; monkey): 0.5 h | half-life ([3]; rat): 0.05 h | half-life [4, 11]: 1.75 h

CCc1c2c(nc3ccc(OC(=O)[C@H]4CC[C@H](CNC(=O)C5CCC(CN6C(=O)CC(SCC(N)C(=O)N[C@@H](C(=O)N[C@H](CCCCN)C(=O)N[C@H](CCCNC(=N)N)C(=O)NCC(=O)N[C@H](CC(C)C)C(=O)N[C@H](CCCCN)C(=O)N[C@H](CC(C)C)C(=O)N[C@H](CCCNC(=N)N)C(=O)N[C@H](Cc7c[nH]cn7)C(=O)N[C@@H](C(=O)N[C@H](CCCNC(=N)N)C(=O)N7CCC[C@@H]7C(=O)N[C@H](CCCNC(=N)N)C(=O)N[C@@H](C(=O)N[C@@H](C(=O)N[C@H](CCCNC(=N)N)C(=O)N[C@H](CCSC)C(=O)N[C@H](CC(=O)O)C(=O)N[C@@H](C(=O)O)C(C)C)[C@H](C)O)C(C)C)C(C)C)C(C)C)C6=O)CC5)CC4)cc13)-c1cc3c(c(=O)n1C2)COC(=O)[C@]3(O)CC (some centres unmarked) [DPV1047(D)-linker #5-SN38]
half-life ([2]; Table 12, CPP-linker #5-SN38 conjugates incl. D conformation, read-out: Human Plasma Half life time): 1.83 h | half-life ([4]; Table 12, CPP-linker #5-SN38 conjugates incl. D conformation, read-out: Dog Plasma Half life time): 2.75 h | IC50 ([6]; 48 h): 23 nM

CC[C@@]1(O)C(=O)OCc2c1cc1n(c2=O)Cc2cc3cc(O)ccc3nc2-1 [10-Hydroxycamptothecin, reference compound]
IC50 ([5]; Homo sapiens, NCI-H460, 48 h, read-out: Drug concentration that inhibits 50% of cell viability (IC50), NCI-H460): 21 nM | IC50 ([6]; Homo sapiens, HCT-116, 48 h, read-out: Drug concentration that inhibits 50% of cell viability (IC50), HCT 116): 64 nM

bevacizumab: bevacizumab (Avastin®, Roche)
Single treatment Reference drug T/C % [1, 7]: 67% | Single treatment Reference drug T/C % [1, 8]: 67%

CC[C@@]1(O)C(=O)OCc2c1cc1n(c2=O)Cc2cc3cc(OC(=O)[C@H]4CC[C@H](CNC(=O)C5CCC(CN6C(=O)CC(SC[C@H](N)C(=O)N[C@H](C(=O)N[C@@H](CCCCN)C(=O)N[C@@H](CCCNC(=N)N)C(=O)NCC(=O)N[C@@H](CC(C)C)C(=O)N[C@@H](CCCCN)C(=O)N[C@@H](CC(C)C)C(=O)N[C@@H](CCCNC(=N)N)C(=O)N[C@@H](Cc7c[nH]cn7)C(=O)N[C@H](C(=O)N[C@@H](CCCNC(=N)N)C(=O)N7CCC[C@H]7C(=O)N[C@@H](CCCNC(=N)N)C(=O)N[C@H](C(=O)N[C@H](C(=O)N[C@@H](CCCNC(=N)N)C(=O)N[C@@H](CCSC)C(=O)N[C@@H](CC(=O)O)C(=O)N[C@H](C(=O)O)C(C)C)[C@@H](C)O)C(C)C)C(C)C)C(C)C)C6=O)CC5)CC4)ccc3nc2-1 (some centres unmarked) [DPV1047-linker #5-10 Hydroxycamptothecin] (H-C(X4)VKRGLKLRHVRPRVTRMDV-OH; N-terminus and C-terminus assumed)
half-life ([2]; Table 14, 10-Hydroxycamptothecin conjugates, read-out: Human Plasma Half life time): 3.57 h | IC50 ([5]; 48 h): 112 nM | half-life ([4]; Table 14, 10-Hydroxycamptothecin conjugates, read-out: Dog Plasma Half life time): 3 h | IC50 ([6]; 48 h): 185 nM

Tat-linker #7-10 Hydroxycamptothecin: Tat48-60 peptide coupled via linker #7 to 10-Hydroxycamptothecin (GRKKRRQRRRAHQ; also: coupled via linker #7 to 10-hydroxycamptothecin, site not given here; UniProt P04608 48-60, looked up, fragment)
IC50 ([5]; Table 15, 48 h continuous exposure, mean of three independent experiments, read-out: Drug concentration that inhibits 50% of cell viability (IC50), NCI-H460): 127 nM | IC50 ([6]; Table 15, 48 h continuous exposure, mean of three independent experiments, read-out: Drug concentration that inhibits 50% of cell viability (IC50), HCT 116): 158 nM
